Assay results reported in paper PMC8809517, “Cofactor-independent RNA editing by a synthetic S-type PPR protein”.
Substitutions are numbered along the chain they refer to.

How the values were obtained:
Assay in all cases: high-throughput RNA pulldown from lysate on Ni-NTA beads; HRP: 50 mM Tris pH 8, 150 mM NaCl, 1 mM beta-mercaptoethanol, 50 ug/ml BSA, 3 ug/ml yeast RNA, 0.5% heparin; ITC and FP: Tris pH 8, 200 mM KCl, 5% glycerol; MST: 50 mM Tris pH 8, 200 mM NaCl, 1 mM DTT, BSA, heparin, 0.05% Tween 20
Conditions in all cases: tags: N-terminal His-eGFP
[1] = biological target: T1, GFP-9S library array, motif 4 ND N98S;D124H (synthetic construct, N98S;D124H)
T1 chain: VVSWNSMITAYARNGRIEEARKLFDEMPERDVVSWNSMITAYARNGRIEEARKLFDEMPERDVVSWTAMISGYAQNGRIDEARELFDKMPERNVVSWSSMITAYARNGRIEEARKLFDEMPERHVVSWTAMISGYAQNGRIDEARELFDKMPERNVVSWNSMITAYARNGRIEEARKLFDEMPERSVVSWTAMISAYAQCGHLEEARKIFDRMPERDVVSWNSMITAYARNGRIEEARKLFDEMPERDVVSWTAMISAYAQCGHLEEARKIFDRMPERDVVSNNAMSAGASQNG

[2] = biological target: T2, GFP-9S library array, motif 4 ND N98G;D124N (synthetic construct, N98G;D124N)
T2 chain: T1 chain with S98G, H124N

[3] = biological target: T3, GFP-9S library array, motif 4 ND N98L;D124S (synthetic construct, N98L;D124S)
T3 chain: T1 chain with S98L, H124S

[4] = biological target: T4, GFP-9S library array, motif 4 ND N98F;D124P (synthetic construct, N98F;D124P)
T4 chain: T1 chain with S98F, H124P

[5] = biological target: T5, GFP-9S library array, motif 4 ND N98V;D124M (synthetic construct, N98V;D124M)
T5 chain: T1 chain with S98V, H124M

AUUAGACGUGA (ssRNA) [Cy5-rpoA-G]
Kd ([1]; label: 5' Cy5): 99.4 nM
Kd ([2]; label: 5' Cy5): 276 nM
Kd ([3]; label: 5' Cy5): 111 nM
Kd ([4]; label: 5' Cy5): 181 nM
Kd ([5]; label: 5' Cy5): 155 nM

AUUAAACGUGA (ssRNA) [IR-rpoA-A]
Kd ([1]; label: 5' IRDye 800CW): 53.5 nM
Kd ([2]; label: 5' IRDye 800CW): 41.2 nM
Kd ([3]; label: 5' IRDye 800CW): 120 nM
Kd ([4]; label: 5' IRDye 800CW): 393 nM
Kd ([5]; label: 5' IRDye 800CW): 431 nM

AUUACACGUGA (ssRNA) [Cy5-rpoA]
Kd ([1]; label: 5' Cy5): 122 nM
Kd ([2]; label: 5' Cy5): 155 nM
Kd ([3]; label: 5' Cy5): 139 nM
Kd ([4]; label: 5' Cy5): 140 nM
Kd ([5]; label: 5' Cy5): 148 nM

AUUAUACGUGA (ssRNA) [IR-rpoA-U]
Kd ([1]; label: 5' IRDye 800CW): 101 nM
Kd ([2]; label: 5' IRDye 800CW): 82.7 nM
Kd ([3]; label: 5' IRDye 800CW): 37.2 nM
Kd ([4]; label: 5' IRDye 800CW): 196 nM
Kd ([5]; label: 5' IRDye 800CW): 294 nM
